This note sets out measurements from US20070238143A1, “Metal ion mediated fluorescence superquenching assays, kits and reagents” (priority 2003, published 2007).

For data set [1], the target named is T1, protein tyrosine phosphatase 1B (PTP-1B) (Homo sapiens, UniProt P18031).
T1 construct: purchased Biomol
T1 sequence (P18031 1-435): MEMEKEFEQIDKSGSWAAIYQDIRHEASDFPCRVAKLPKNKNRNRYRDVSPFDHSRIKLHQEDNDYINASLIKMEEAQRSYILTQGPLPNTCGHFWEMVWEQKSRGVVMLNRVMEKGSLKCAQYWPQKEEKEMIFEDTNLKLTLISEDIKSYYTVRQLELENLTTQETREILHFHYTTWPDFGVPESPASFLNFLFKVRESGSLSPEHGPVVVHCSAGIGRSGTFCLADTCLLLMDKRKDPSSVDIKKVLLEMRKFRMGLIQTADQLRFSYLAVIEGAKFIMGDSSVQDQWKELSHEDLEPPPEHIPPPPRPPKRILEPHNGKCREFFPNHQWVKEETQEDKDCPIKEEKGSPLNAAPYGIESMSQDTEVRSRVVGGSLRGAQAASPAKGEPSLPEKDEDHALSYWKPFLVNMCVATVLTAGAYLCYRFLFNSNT
Description: Protein tyrosine phosphatase 1B (PTP-1B) metal ion mediated superquenching assay, inhibition. The data set is classed as biochemical. The following applies: inhibitor curve; FIG. 7. Here is the method: For detection of phosphatase activity:
Recombinant PKA was purchased from Promega. […] Polystyrene amine functionalized beads were obtained from Interfacial Dynamics.
The format was tested for detection of protein tyrosine phosphatase activity 1B (PTP-1B) on a peptide substrate of different length and sequence composition than the one used for PKA.

In the next data set the test system is T2, Rhodamine-LRRASLG.
T2 sequence: LRRASLG

Another data set has as its system T3, biotin-LRRASLG.
T3 sequence: LRRASLG

For another data set, the system named is T4, Rhodamine-LRRA(pS)LG.
T4 sequence: LRRASLG

Data set [2] relates to myelin basic protein (MBP).

The term IC50 denotes the concentration needed to halve the response being measured. As to `CCCCCCCCCCCCCCCC(=O)C1=C(O)C(CO)OC1=O` (stereo not shown) [RK-682], the midpoint of inhibition in data set [1], the IC50, lay at 26.4 nM.
Consider Recombinant Protein Kinase A (PKA), for which the “endpoint measurement of PKA enzyme activity (polymer quench)” value in the data set on Rhodamine-LRRASLG is “an increase in polymer quench correlates with enzyme concentration”. Also, in the data set on biotin-LRRASLG, the “two-step PKA endpoint assay (fluorescence quench)” value is on record as “the assays perform using either synthetic substrates with an N-terminal quencher or using biotinylated substrates to which a streptavidin-fluorescein conjugate is added”.
In the data set with Rhodamine-LRRA(pS)LG, Trypsin came in with a Sample (sensor fluorescence after trypsin reaction) of 42100, a Signal Increase of 34400 and a Signal/Background of 5.42.
For kinase PKCα, in data set [2], the “blocking kinase assay (fluorescence turn-on)” value was “The resulting fluorescence correlates with the extent of mbp phosphorylation”.
